Measured values: publication PMC5384220, “Highly selective inhibition of histone demethylases by de novo macrocyclic peptides” (Nature Communications, 2017)

B1: H3(1–15)K9me3 (peptide, UniProt P68431 2-16, looked up)
peptide: ARTKQTARKSTGGKA
modifications: trimethyl-lysine at 9
notes: histone H3, residues 1-15, Lys9 trimethylated; The H3K9me3 substrate of the formaldehyde dehydrogenase coupled assay is not described further; this molecule is used for it; also called histone H3K9 peptide; H3K9me3
B2: CP5 (peptide)
chain: YSKYTQSGVRWVC
modifications: not fully specified; N-terminal L-Tyr (^LTyr library, N-chloroacetyl-L-Tyr) cyclised by a thioether to a downstream cysteine

How the values were obtained:
[1] = biological target: T1, His-KDM4A_(1–359)-Bio (human, UniProt O75164 1-359, biotin on the AviTag (>95% biotinylation)); test: BLI; His-KDM4A(1–359)-Bio (70 nM) immobilised on super streptavidin biosensor, peptides at different concentrations in solution; OctetRed 384; 50 mM HEPES pH 7.5, 150 mM NaCl, 10 μM ammonium iron(II) sulphate; details: both partners purified
T1 construct: KDM4A, residues 1-359, cloned into pNIC-Bio3; also called His-KDM4A-Bio; His-KDM4A with biotin; not shown: AviTag, C-terminal, kept
T1 sequence (looked up): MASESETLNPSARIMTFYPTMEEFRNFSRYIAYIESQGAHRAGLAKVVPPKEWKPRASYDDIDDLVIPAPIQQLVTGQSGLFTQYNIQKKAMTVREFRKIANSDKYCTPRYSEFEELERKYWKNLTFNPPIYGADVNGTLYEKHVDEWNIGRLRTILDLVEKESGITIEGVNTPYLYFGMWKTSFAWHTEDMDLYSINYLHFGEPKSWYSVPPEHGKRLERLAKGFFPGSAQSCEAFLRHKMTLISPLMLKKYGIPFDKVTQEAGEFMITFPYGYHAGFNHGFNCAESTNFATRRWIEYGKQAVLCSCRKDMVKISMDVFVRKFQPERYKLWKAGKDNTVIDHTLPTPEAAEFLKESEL

[2] = biological target: KDM1A (human, UniProt O60341 1-852); test: cell-based or functional assay
[3] = biological target: T2, KDM3A (human, UniProt Q9Y4C1 1-1321); test: cell-based or functional assay
T2 sequence (looked up): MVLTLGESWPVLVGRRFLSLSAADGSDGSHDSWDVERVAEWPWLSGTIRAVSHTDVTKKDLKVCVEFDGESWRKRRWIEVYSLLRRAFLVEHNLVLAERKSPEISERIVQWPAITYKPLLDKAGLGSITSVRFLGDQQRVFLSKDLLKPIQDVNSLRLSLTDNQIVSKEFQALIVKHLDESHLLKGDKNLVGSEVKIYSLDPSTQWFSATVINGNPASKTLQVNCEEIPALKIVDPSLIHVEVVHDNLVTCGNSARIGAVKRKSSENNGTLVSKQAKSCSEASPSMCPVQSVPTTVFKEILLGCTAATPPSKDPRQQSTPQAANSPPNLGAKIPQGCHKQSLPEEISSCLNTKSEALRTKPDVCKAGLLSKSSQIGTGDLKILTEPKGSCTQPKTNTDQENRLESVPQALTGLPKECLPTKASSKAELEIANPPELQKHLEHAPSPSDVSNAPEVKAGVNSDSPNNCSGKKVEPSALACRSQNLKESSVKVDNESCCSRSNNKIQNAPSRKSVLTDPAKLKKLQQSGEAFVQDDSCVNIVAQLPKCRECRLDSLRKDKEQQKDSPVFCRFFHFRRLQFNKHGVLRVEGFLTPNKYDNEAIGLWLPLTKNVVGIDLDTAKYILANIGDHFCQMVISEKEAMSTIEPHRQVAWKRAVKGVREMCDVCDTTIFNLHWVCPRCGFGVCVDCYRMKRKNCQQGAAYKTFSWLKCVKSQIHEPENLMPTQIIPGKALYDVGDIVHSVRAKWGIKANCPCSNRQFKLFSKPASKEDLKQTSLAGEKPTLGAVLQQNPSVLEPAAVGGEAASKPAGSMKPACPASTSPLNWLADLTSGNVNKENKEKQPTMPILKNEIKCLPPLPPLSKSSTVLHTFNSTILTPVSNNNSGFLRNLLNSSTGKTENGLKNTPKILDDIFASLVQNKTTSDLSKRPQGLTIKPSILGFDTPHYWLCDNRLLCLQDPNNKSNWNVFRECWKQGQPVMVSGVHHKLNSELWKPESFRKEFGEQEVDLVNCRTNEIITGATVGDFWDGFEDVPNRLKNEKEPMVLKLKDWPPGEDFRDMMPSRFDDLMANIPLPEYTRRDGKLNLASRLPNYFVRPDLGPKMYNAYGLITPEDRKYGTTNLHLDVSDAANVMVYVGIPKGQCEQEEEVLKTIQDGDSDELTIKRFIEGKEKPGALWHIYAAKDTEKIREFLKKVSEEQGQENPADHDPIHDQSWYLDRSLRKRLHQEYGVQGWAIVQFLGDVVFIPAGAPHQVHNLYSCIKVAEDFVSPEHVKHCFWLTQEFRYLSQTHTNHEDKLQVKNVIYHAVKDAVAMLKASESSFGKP

[4] = biological target: T3, KDM2A (human, UniProt Q9Y2K7 1-1162); test: cell-based or functional assay
T3 sequence (looked up): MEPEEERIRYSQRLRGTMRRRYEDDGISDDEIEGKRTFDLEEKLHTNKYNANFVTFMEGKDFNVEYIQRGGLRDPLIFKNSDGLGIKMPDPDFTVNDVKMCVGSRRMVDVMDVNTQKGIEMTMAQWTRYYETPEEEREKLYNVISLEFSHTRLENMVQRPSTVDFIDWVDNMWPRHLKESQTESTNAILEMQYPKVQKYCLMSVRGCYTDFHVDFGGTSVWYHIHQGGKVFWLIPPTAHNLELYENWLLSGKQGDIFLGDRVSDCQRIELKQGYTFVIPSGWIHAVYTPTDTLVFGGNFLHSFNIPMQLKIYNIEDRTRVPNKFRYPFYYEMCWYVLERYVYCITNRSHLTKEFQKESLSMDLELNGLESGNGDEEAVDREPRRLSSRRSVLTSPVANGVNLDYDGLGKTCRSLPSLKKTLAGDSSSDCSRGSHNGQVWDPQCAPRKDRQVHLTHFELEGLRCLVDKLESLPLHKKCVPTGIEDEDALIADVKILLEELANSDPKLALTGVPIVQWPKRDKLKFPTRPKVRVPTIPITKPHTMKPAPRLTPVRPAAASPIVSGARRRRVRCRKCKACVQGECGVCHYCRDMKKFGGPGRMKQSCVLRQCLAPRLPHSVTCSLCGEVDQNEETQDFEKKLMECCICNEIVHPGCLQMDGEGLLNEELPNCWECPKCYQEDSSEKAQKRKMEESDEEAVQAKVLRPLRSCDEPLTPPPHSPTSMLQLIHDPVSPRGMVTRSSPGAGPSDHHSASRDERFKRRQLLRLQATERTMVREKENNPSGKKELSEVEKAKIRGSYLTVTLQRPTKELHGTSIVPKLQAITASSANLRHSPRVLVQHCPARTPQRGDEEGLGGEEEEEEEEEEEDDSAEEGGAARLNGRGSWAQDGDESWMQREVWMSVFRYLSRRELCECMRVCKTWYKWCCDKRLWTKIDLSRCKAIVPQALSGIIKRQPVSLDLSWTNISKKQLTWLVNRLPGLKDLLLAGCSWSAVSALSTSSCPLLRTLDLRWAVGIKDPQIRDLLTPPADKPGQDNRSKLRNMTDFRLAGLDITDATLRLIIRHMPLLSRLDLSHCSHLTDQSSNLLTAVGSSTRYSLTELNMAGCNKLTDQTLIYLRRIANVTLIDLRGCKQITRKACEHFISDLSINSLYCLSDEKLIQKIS

[5] = biological target: KDM6B (human, UniProt O15054 1-1643); test: cell-based or functional assay
Sequence of KDM6B (O15054 whole entry): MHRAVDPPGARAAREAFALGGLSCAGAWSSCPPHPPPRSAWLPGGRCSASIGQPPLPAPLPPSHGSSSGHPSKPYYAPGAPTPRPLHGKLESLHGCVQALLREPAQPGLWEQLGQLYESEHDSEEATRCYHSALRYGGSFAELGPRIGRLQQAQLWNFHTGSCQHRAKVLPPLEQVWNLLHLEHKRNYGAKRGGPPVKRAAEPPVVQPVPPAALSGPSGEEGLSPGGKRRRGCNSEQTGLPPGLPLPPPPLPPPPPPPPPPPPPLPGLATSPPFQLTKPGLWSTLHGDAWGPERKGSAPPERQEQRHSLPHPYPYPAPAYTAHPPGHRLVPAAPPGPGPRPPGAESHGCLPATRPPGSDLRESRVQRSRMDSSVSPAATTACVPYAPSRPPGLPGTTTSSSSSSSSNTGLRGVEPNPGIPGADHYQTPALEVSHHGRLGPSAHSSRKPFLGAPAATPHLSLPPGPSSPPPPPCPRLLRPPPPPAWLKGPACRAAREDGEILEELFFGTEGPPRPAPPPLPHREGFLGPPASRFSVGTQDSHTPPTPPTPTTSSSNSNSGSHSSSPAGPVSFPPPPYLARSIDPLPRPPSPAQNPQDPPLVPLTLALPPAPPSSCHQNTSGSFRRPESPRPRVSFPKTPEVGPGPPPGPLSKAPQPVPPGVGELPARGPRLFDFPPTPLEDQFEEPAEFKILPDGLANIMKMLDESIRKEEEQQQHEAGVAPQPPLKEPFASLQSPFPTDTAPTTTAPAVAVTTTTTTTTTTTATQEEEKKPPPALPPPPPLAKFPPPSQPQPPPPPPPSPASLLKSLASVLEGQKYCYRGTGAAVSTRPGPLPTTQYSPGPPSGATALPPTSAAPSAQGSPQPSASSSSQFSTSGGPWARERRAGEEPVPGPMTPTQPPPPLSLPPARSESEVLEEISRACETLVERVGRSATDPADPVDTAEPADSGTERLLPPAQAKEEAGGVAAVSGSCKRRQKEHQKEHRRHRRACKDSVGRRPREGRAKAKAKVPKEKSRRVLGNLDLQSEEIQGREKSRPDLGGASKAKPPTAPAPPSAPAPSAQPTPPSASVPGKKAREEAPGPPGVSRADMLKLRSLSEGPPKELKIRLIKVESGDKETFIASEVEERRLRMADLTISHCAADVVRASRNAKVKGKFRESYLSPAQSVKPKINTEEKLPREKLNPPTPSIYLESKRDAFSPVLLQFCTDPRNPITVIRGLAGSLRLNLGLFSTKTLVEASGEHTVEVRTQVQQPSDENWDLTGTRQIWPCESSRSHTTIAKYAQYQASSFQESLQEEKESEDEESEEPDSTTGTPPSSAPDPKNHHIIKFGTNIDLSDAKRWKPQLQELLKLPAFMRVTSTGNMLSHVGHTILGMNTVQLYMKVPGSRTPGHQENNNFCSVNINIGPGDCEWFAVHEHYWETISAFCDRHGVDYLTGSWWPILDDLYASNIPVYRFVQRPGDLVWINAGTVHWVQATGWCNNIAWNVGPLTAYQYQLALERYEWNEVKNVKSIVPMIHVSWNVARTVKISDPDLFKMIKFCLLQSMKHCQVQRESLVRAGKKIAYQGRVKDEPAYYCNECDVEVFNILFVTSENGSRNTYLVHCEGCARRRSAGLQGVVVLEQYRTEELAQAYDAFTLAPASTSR

[6] = biological target: factor inhibiting HIF (UniProt Q9NWT6 1-349); test: cell-based or functional assay
Sequence of factor inhibiting HIF (Q9NWT6 whole entry, the tested form may be a part): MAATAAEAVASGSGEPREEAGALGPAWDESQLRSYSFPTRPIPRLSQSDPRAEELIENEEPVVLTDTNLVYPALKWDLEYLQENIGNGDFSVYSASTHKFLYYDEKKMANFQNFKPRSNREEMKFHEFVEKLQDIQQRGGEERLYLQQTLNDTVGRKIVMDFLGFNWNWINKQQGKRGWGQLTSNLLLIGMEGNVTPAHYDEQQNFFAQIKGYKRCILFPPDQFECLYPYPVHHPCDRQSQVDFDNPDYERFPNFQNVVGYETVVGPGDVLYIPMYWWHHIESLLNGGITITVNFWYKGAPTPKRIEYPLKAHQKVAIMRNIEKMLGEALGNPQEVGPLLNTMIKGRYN

[7] = biological target: prolyl hydroxylase domain 2 (UniProt Q9GZT9 1-426); test: cell-based or functional assay
Sequence of prolyl hydroxylase domain 2 (Q9GZT9 whole entry, the tested form may be a part): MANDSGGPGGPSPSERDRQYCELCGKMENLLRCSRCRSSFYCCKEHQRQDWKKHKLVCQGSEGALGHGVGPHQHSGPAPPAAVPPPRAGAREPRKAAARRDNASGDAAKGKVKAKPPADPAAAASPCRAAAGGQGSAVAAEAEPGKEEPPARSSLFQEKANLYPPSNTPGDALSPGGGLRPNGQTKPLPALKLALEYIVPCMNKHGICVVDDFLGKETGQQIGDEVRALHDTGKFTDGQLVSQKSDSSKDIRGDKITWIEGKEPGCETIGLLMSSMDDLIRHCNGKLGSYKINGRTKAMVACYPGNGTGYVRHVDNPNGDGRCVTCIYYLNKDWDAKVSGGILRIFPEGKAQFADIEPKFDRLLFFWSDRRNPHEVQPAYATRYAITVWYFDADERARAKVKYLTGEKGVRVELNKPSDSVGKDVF

[8] = biological target: T4, KDM4D (human, UniProt Q6B0I6 1-523); test: cell-based or functional assay
T4 sequence (looked up): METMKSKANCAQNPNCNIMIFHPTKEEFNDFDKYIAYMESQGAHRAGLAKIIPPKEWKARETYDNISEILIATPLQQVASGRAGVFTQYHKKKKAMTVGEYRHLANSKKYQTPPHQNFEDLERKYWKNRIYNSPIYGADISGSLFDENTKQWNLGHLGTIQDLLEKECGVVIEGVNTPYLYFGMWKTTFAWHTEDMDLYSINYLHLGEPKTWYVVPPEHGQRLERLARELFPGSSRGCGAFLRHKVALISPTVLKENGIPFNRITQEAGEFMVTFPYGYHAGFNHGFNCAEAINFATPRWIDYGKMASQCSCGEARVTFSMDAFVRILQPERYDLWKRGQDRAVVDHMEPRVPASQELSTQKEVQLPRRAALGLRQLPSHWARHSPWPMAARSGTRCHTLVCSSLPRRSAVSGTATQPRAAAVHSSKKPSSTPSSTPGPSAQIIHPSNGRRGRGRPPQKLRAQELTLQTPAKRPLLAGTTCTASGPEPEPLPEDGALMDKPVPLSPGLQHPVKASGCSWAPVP

[9] = biological target: KDM5C (human, UniProt P41229 1-1560); test: cell-based or functional assay
Sequence of KDM5C (P41229 whole entry): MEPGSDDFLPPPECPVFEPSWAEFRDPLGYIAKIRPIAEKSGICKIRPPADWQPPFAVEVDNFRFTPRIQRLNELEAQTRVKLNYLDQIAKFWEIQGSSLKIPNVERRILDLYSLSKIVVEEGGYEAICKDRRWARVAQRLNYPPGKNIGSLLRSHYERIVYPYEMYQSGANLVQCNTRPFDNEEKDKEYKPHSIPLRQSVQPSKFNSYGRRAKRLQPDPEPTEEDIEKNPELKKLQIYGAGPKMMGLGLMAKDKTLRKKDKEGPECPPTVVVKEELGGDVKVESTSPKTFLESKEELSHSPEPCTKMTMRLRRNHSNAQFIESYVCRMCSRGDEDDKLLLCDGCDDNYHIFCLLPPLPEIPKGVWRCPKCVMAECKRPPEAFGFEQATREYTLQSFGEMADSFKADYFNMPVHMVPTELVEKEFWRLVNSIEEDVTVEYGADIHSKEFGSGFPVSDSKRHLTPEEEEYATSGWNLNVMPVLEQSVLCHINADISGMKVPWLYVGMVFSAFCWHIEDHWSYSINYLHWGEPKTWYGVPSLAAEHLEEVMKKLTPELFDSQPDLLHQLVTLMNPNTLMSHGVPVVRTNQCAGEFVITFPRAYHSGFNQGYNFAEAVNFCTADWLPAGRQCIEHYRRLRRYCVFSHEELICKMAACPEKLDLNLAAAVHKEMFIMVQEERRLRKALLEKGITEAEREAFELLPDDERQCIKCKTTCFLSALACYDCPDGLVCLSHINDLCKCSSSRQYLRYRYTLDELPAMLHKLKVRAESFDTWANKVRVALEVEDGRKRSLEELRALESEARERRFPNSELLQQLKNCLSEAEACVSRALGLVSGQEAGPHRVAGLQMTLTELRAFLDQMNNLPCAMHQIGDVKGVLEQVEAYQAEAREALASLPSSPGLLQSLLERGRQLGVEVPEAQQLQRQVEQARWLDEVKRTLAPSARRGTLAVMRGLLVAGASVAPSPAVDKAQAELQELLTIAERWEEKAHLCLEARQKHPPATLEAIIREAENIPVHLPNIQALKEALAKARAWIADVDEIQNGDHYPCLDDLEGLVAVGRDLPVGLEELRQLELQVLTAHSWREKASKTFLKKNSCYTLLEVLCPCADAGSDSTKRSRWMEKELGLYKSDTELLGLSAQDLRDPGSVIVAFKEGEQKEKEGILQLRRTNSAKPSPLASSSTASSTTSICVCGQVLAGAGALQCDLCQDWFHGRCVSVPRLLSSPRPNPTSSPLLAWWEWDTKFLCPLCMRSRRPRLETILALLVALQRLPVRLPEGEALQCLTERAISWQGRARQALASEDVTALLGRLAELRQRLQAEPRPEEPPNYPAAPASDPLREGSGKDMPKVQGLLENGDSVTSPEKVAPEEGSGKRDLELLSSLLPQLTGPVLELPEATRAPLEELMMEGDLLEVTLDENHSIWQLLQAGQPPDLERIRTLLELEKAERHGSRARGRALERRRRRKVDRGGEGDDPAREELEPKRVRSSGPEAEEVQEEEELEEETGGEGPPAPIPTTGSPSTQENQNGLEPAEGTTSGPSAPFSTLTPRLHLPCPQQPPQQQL

Binder	fold weaker Kd than the cyclic peptides CP2, CP4 and CP5 [1]	IC50 of inhibition of KDM1A/LSD1 (fluorescence-based assay) [2]	IC50 of inhibition of demethylase activity (AlphaScreen activity assay) [3]	IC50 of inhibition of demethylase activity (AlphaScreen activity assay) [4]	IC50 of inhibition of demethylase activity (AlphaScreen activity assay) [5]	IC50 of inhibition of FIH (MALDI–TOF MS assay) [6]	IC50 of inhibition of PHD2 (MALDI–TOF MS assay) [7]	IC50 of inhibition of demethylase activity (AlphaScreen activity assay) [8]	IC50 of inhibition of demethylase activity (AlphaScreen activity assay) [9]
B1	> 1000 fold								
B2		> 10 µM	> 10 µM	> 10 µM	> 10 µM	> 1000 µM	> 1000 µM	> 10 µM	> 10 µM
